These results are taken from patent US20140274782A1, “AFFINITY REAGENTS AND METHODS FOR DETECTION, PURIFICATION, AND PROTEOMIC ANALYSIS OF METHYLATED PROTEINS” (The Board of Trustees of the Leland Stanford Junior …, priority 2013, published 2014).

Assay [1] relates to 3×MBT domain of L3MBTL1. The assay can be described thus: Triple SILAC pull-down, 3xMBT/3xMBTD355N ratio (cytoplasmic, nuclear and chromatin fractions of 293T cells).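 On all read-outs here: proteins quantified with MaxQuant, requiring at least two unique peptides and quantification in both label directions, normalized to the mean of proteins from a digested loading control.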 Type of assay: binding, human. Conditions: SILAC ratio, pull-down 3xMBT vs 3xMBTD355N; for 3xMBT/D355N UNC Heavy: experiment with UNC0638 in heavy SILAC media; for 3xMBT/D355N UNC Light: experiment with UNC0638 in light SILAC media.

The target of assay [2] is T1, G9a and GLP (Homo sapiens, UniProt Q96KQ7+Q9H9B1).
T1 sequence (Q96KQ7 2-1210 limits assumed): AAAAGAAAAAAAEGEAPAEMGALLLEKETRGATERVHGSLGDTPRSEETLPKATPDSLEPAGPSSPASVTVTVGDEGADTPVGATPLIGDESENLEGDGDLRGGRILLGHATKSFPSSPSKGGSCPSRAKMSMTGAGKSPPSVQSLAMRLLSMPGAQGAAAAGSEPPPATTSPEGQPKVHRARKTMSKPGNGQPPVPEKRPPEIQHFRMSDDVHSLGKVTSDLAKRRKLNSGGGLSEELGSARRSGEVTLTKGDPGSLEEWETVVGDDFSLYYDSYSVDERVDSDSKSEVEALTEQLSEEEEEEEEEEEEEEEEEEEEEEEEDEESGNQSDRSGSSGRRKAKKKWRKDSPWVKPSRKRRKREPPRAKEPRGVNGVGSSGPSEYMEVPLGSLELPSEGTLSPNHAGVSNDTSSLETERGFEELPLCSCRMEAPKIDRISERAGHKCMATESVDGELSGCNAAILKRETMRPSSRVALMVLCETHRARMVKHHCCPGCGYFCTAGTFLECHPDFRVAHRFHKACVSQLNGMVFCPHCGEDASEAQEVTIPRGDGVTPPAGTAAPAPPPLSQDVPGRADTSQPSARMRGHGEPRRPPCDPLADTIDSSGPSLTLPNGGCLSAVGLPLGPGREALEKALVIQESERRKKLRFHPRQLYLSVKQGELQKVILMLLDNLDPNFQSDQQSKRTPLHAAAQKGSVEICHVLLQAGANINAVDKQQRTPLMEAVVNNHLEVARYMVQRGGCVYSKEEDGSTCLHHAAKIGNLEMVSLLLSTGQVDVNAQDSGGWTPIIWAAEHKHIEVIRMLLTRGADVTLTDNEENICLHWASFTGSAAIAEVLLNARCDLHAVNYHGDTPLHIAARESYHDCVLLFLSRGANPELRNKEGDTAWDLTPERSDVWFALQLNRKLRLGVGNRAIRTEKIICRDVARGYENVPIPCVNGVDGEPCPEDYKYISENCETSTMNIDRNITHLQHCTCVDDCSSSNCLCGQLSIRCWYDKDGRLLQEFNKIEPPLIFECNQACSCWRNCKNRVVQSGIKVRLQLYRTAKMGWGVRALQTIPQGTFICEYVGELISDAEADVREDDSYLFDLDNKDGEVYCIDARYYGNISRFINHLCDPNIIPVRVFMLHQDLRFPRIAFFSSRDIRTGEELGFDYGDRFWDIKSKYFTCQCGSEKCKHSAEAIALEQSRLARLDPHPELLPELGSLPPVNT
T1 sequence (Q9H9B1 2-1298 limits assumed): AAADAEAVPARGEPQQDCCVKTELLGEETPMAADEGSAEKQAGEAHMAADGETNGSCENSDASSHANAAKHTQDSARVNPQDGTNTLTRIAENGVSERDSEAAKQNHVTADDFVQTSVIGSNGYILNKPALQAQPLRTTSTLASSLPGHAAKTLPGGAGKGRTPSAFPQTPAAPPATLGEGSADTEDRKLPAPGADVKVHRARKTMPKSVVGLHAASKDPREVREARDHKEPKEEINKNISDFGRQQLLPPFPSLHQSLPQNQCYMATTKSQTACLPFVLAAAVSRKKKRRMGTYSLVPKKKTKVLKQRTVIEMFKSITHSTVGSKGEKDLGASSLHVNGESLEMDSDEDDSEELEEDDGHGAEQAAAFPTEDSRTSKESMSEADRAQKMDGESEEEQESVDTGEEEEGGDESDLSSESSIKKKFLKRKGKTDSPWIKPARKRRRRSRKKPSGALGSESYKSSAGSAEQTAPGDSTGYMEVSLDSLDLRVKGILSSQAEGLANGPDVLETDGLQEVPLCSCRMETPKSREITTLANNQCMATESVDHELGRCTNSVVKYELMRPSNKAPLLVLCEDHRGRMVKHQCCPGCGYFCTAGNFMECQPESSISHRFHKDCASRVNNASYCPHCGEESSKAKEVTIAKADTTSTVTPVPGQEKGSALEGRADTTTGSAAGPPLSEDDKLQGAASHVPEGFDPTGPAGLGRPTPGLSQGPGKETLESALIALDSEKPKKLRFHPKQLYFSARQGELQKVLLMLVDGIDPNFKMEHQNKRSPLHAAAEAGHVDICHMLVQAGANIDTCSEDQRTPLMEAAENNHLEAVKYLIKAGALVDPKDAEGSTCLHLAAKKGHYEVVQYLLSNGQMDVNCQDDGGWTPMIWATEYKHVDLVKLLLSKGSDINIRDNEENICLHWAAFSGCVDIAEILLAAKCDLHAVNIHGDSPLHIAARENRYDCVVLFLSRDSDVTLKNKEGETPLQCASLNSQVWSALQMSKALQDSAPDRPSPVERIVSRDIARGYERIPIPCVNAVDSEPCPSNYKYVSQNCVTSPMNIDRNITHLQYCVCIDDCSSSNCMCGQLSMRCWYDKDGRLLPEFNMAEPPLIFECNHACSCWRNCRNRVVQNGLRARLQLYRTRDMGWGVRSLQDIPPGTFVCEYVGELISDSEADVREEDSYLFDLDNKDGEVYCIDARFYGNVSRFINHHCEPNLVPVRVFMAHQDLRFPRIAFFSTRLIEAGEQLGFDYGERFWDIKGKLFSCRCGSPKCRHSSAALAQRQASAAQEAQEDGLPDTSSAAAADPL
Put plainly: Triple SILAC pull-down after UNC0638 treatment of 293T cells, DMSO/UNC0638 ratio of protein captured by 3×MBT.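 On all read-outs here: mass spectrometry (Q-Exactive) SILAC quantitation, DMSO/UNC0638 ratio computed after subtracting 3×MBTD355N mutant pull-down background, only proteins with at least twofold 3×MBT over mutant signal considered.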 Type of assay: cell-based. Also noted: cells were treated for 24 hours with UNC0638 at 2.5 μM or DMSO vehicle control; endogenous in cells; host or cells: HEK 293T. Conditions: for Relative to UNC0638 UNC Heavy / Relative to UNC0638 UNC Light: SILAC ratio DMSO/UNC0638 of protein pulled down with 3xMBT; for Relative to UNC0638 UNC Heavy: UNC0638 in heavy SILAC media; for Relative to UNC0638 UNC Light: UNC0638 in light SILAC media; for Relative to UNC0638 Average: average of UNC Light and UNC Heavy experiments.

B1: SRSF11 (protein, UniProt Q05519 2-484, looked up)
Serine/arginine-rich splicing …: SNTTVVPSTAGPGPSGGPGGGGGGGGGGGGTEVIQVTNVSPSASSEQMRTLFGFLGKIDELRLFPPDDSPLPVSSRVCFVKFHDPDSAVVAQHLTNTVFVDRALIVVPYAEGVIPDEAKALSLLAPANAVAGLLPGGGLLPTPNPLTQIGAVPLAALGAPTLDPALAALGLPGANLNSQSLAADQLLKLMSTVDPKLNHVAAGLVSPSLKSDTSSKEIEEAMKRVREAQSLISAAIEPDKKEEKRRHSRSRSRSRRRRTPSSSRHRRSRSRSRRRSHSKSRSRRRSKSPRRRRSHSRERGRRSRSTSKTRDKKKEDKEKKRSKTPPKSYSTARRSRSASRERRRRRSRSGTRSPKKPRSPKRKLSRSPSPRRHKKEKKKDKDKERSRDERERSTSKKKKSKDKEKDRERKSESDKDVKQVTRDYDEEEQGYDSEKEKKEEKKPIETGSPKTKECSVEKGTGDSLRESKVNGDDHHEEDMDMSD
For the molecule B1, in assay [1], the “3xMBT/D355N UNC Heavy” value is on record as 2.45 log base 2 and the “3xMBT/D355N UNC Light” value worked out at 2.22 log base 2. Moreover, in assay [2], the “Relative to UNC0638 UNC Heavy” value was found to be 0.15 log base 2, the “Relative to UNC0638 UNC Light” value turned out to be 0.34 log base 2 and the “Relative to UNC0638 Average” value amounted to 0.24 log base 2.

B2: U2SURP (protein, UniProt O15042 2-1029, looked up)
U2 snRNP-associated SURP …: ADKTPGGSQKASSKTRSSDVHSSGSSDAHMDASGPSDSDMPSRTRPKSPRKHNYRNESARESLCDSPHQNLSRPLLENKLKAFSIGKMSTAKRTLSKKEQEELKKKEDEKAAAEIYEEFLAAFEGSDGNKVKTFVRGGVVNAAKEEHETDEKRGKIYKPSSRFADQKNPPNQSSNERPPSLLVIETKKPPLKKGEKEKKKSNLELFKEELKQIQEERDERHKTKGRLSRFEPPQSDSDGQRRSMDAPSRRNRSSGVLDDYAPGSHDVGDPSTTNLYLGNINPQMNEEMLCQEFGRFGPLASVKIMWPRTDEERARERNCGFVAFMNRRDAERALKNLNGKMIMSFEMKLGWGKAVPIPPHPIYIPPSMMEHTLPPPPSGLPFNAQPRERLKNPNAPMLPPPKNKEDFEKTLSQAIVKVVIPTERNLLALIHRMIEFVVREGPMFEAMIMNREINNPMFRFLFENQTPAHVYYRWKLYSILQGDSPTKWRTEDFRMFKNGSFWRPPPLNPYLHGMSEEQETEAFVEEPSKKGALKEEQRDKLEEILRGLTPRKNDIGDAMVFCLNNAEAAEEIVDCITESLSILKTPLPKKIARLYLVSDVLYNSSAKVANASYYRKFFETKLCQIFSDLNATYRTIQGHLQSENFKQRVMTCFRAWEDWAIYPEPFLIKLQNIFLGLVNIIEEKETEDVPDDLDGAPIEEELDGAPLEDVDGIPIDATPIDDLDGVPIKSLDDDLDGVPLDATEDSKKNEPIFKVAPSKWEAVDESELEAQAVTTSKWELFDQHEESEEEENQNQEEESEDEEDTQSSKSEEHHLYSNPIKEEMTESKFSKYSEMSEEKRAKLREIELKVMKFQDELESGKRPKKPGQSFQEQVEHYRDKLLQREKEKELERERERDKKDKEKLESRSKDKKEKDECTPTRKERKRRHSTSPSPSRSSSGRRVKSPSPKSERSERSERSHKESSRSRSSHKDSPRDVSKKAKRSPSGSRTPKRSRRSRSRSPKKSGKKSRSQSRSPHRSHKKSKKNKH
Turning to B2, in assay [1], the “3xMBT/D355N UNC Heavy” value turned out to be 3.19 log base 2 and the “3xMBT/D355N UNC Light” value came to 2.58 log base 2. In addition, in assay [2], the “Relative to UNC0638 UNC Heavy” value turned out to be 0.23 log base 2, the “Relative to UNC0638 UNC Light” value amounted to 0.27 log base 2 and the “Relative to UNC0638 Average” value amounted to 0.25 log base 2.

B3: SEC24A (protein, UniProt O95486 1-1093, looked up)
Protein transport protein …: MSQPGIPASGGAPASLQAQNGAALASGSPYTNGPVQNALLSSQESVSQGYNFQLPGSYPHPIPAKTLNPVSGQSNYGGSQGSGQTLNRPPVASNPVTPSLHSGPAPRMPLPASQNPATTPMPSSSFLPEANLPPPLNWQYNYPSTASQTNHCPRASSQPTVSGNTSLTTNHQYVSSGYPSLQNSFIKSGPSVPPLVNPPLPTTFQPGAPHGPPPAGGPPPVRALTPLTSSYRDVPQPLFNSAVNQEGITSNTNNGSMVVHSSYDEIEGGGLLATPQLTNKNPKMSRSVGYSYPSLPPGYQNTTPPGATGVPPSSLNYPSGPQAFTQTPLGANHLTTSMSGLSLQPEGLRVVNLLQERNMLPSTPLKPPVPNLHEDIQKLNCNPELFRCTLTSIPQTQALLNKAKLPLGLLLHPFKDLVQLPVVTSSTIVRCRSCRTYINPFVSFLDQRRWKCNLCYRVNDVPEEFLYNPLTRVYGEPHRRPEVQNATIEFMAPSEYMLRPPQPPVYLFVFDVSHNAVETGYLNSVCQSLLDNLDLLPGNTRTKIGFITFDSTIHFYGLQESLSQPQMLIVSDIEDVFIPMPENLLVNLNESKELVQDLLKTLPQMFTKTLETQSALGPALQAAFKLMSPTGGRMSVFQTQLPTLGVGALKPREEPNHRSSAKDIHMTPSTDFYKKLALDCSGQQVAVDLFLLSGQYSDLASLGCISRYSAGSVYYYPSYHHQHNPVQVQKLQKELQRYLTRKIGFEAVMRIRCTKGLSIHTFHGNFFVRSTDLLSLPNVNPDAGYAVQMSVEESLTDTQLVSFQSALLYTSSKGERRIRVHTLCLPVVSTLNDVFLGADVQAISGLLANMAVDRSMTASLSDARDALVNAVIDSLSAYRSSVLSNQQPGLMVPFSLRLFPLFVLALLKQKSFQTGTNARLDERIFAMCQVKNQPLVYLMLTTHPSLYRVDNLSDEGALNISDRTIPQPPILQLSVEKLSRDGAFLMDAGSVLMLWVGKNCTQNFLSQVLGVQNYASIPQPMTDLPELDTPESARIIAFISWLREQRPFFPILYVIRDESPMKANFLQNMIEDRTESALSYYEFLLHIQQQVNK
Turning to B3, in assay [1], the “3xMBT/D355N UNC Heavy” value is 1.94 log base 2 and the “3xMBT/D355N UNC Light” value is recorded as 2.29 log base 2. Further, in assay [2], the “Relative to UNC0638 UNC Heavy” value came out at 0.60 log base 2, the “Relative to UNC0638 UNC Light” value is on record as −0.11 log base 2 and the “Relative to UNC0638 Average” value stood at 0.24 log base 2.
